Data taken from PMC10585004.

Target: Bovine Thyroglobulin (Sigma-T1001) (bovine) (UniProt P01267)
Experiment: SAXS; XFEL small-angle scattering, liquid jet (GDVN) with reservoir delivery, thyroglobulin 0.7 mg/ml in PBS; experimental form factor compared with the profile computed (CRYSOL) from the cryo-EM dimer model

## Bovine Thyroglobulin (Sigma-T1001), P01267 20-2769
  stoichiometry N: 2
